The values below come from patent US20210145878A1.

Numbering of substitutions follows the chain as printed.

For one assay, the target named is CD79b-AF647. In words: flow cytometry, CAR-transduced primary human T cells stained with recombinant human CD79b extracellular domain-AF647. For orientation: A flow cytometer gives signals particle by particle.
Assay [1] has as its target recombinant human CD79b isoform-2 (short) (human) (UniProt P40259). In words: SPR, Biacore 8k; scFv-Fc captured by anti-human Fc, CD79b as analyte; 1:1 Langmuir. In general terms: Surface plasmon resonance follows binding to a sensor surface in real time, without labels.

Sequence of CD79b-AF647 (chain, as listed by the source limits assumed): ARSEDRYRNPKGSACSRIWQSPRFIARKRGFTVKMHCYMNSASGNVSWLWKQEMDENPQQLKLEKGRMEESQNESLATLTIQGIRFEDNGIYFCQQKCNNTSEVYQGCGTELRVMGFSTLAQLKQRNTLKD

B1: SN8 #51 (protein, part only; not given: hinge, transmembrane and signaling domains, part only)
CAR polypeptide, part: DIVLTQSPDSLAVSLGERATINCKASQSVDYEGDSFLNWYQQKPGQPPKLLIYAASNLESGVPDRFSGSGSGTDFTLTISSLQAEDVAVYYCQQSNEDPLTFGGGTKVEIKGGSEGKSSGSGSESKSTGGSQVQLVQSGAEVKKPGASVKVSCKASGYTFTGYWIEWVRQAPGQGLEWMGEILPGGGDTNYNQKFQGKVTFTRDTSTSTAYMELSSLRSEDTAVYYCARRVPVYFDYWGQGTLVTVSS
For B1, the aCD79b CAR+ (frequency of CAR+ cells) with CD79b-AF647 was 0.048.

B2: CD9W23 LH scFv-Fc (Fc fusion, not shown: a dimerising Fc or GST)
chain: B1 CAR polypeptide, part with E32D, A171R
Regarding B2, in assay [1], the Kd – broadly, a measure of binding affinity in units of concentration – stood at 11.5 nM.

B3: CD9W59 LH scFv-Fc (Fc fusion, not shown: a dimerising Fc or GST)
chain: B1 CAR polypeptide, part with E32D, A210V
Turning to B3, the Kd in assay [1] came to 6.9 nM.
